The data set is described as follows: soluble fraction after stress (log2 fold change); higher = more stays soluble; pooled small domains, quantitative proteomics. The settings on record: stress: 50 degC. The procedure, abridged: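 Custom libraries of small protein domains were pooled and measured in a high-throughput format, with quantitative proteomics as the read-out. Each library was stressed at 50°C. The value is the log2 fold change in the amount of each protein that stays soluble after stress, used as a measure of aggregation propensity; higher values mean more of the protein stays soluble.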

The text below walks through data of the domain aggregation screens of Martell et al. (2025).

With “HMVITPESVKEQVLAIISKSPAQGFNYKQISKRLNINDPSERKMVSDILRELSESGTIEEINKGKYRAKV”, the “soluble fraction (log2)” value is -0.0556. Under “HMDVQTVTVIENVNVRKSASENGQKLGLAYTGEKLELLMKQADGWTRVKYNGETAYVKSDYV” stands -0.00354; under “HMGTRHPLPYAFAKAHTVLLEDDGDRLLLHAAENSGPSALGEILRLYDVDALERETASTLANRIAVAYAG”, 0.00932. With “HMGTLNLSQAYREWGMAEIEANRDYYGPVRFDDIAFQMSPAGQQLQARFVASYADRLHDAIEGEL”, the “soluble fraction (log2)” value is -0.304. As for “HMEETAFEKLSPLQKLRALGKPLTMINMRDGSQIAGSVQRSDDKFLYLDTGDGIAKLPVEEILRRTPM”, the “soluble fraction (log2)” value was determined as 0.25. For “HMNAEWMFDARKIPGLVMNYLRRIAVRAIEEKHYSPELVADLFGIDRTSIYDWLRKYRQQGEEALDTRKA”, the “soluble fraction (log2)” value was 0.012. Under “HMLDLYYDSEDKLLIDMGTGEVIRSFADDKRSLVFDAQAKILFDEDSGDIVYSSYFDKLITDKLASKS” stands -0.0393; under “HMDITTIIADVPGPKTQIKVDIKNTSLHIFGGMNFKKEIDIGDNKEIINIKYINGTLTVKLKT”, 0.089; under “HMDGLDFIINENGKIANINEEGELLAKGENIMLGYYKDSISTNNTINNGWLHTGDIAKIDNDGFIYL”, 0.0618. The value for “HMLLRSEDAIELGKSQLEDALAPYKIETLDTGTVQQLLDSLKLNSLESLYQEIGLGNRMSTIIAHRLLGE” was -0.156; that for “HMSTLTGTQRAAVVLMQMSPPNAARVMAQFTDAEAEEIAAEIVRLRKVDPEVAEQIMKDFHEAALSS” was -0.252.

On to “HMQTGRREALEAQLRETGGEAMLARLREIDPEAAARLHPADEKRVIRALEVYEETGKTITQHNLETKAVPP”, for which the “soluble fraction (log2)” value came to 0.239.

Take “HMPSEDELAERLRGAIRQGDILNEGRMPPERALAEHFGVSRARLRLALGLLQEDGTIYRRHGQGTFAT”: the “soluble fraction (log2)” value was -0.132. Under “HMQAATQVNIVGLFSNKAVVIINGGKPKTLSVGQTSEGVKLLAADSQTATLQIEGKTQQLGMGQAASVGG” stands 0.134. Take “HMTALSIGTVVRFTGDRHYISSTGDTGYPASPGLAKITSINPGSKHPYHLIHIDNTSNVYGWVNKQDIIT”: the “soluble fraction (log2)” value was 0.16. For the sequence “HMESRTQVYDFYKDLFREKRRPLRAEEMLSALKSQRGIVGVNQYQIIEQHGIVRLSGSGRSALYWDTDLGS”, the “soluble fraction (log2)” value was -2.74.

In the case of “HMSWRWVPVSGAYTTSALEAAGLTRAFDDQAAAEEWLGLFFDDLLREGVGEVSLYEEDRLVYGPMSL”, the “soluble fraction (log2)” value was -3.1. Under “HMIDSDENERIKELIKALISETLKSRGVSPEVISDIKERVDRLHNEELPRFAAELKELISRN” stands 0.119; under “HMDGYTAVDKAVSDQYYTKENQLYFVSMGNFFSLGAKKIEGADISSFQILTTEYARDLQHLYFNGKV”, -0.383. In the case of “HMPSTVSVPDVAGSSLSEAKTTIKSSGLKVGTVHKVSSDTVESGYVIKTSPTAGSSKKEGSSIDIYVSKG”, the “soluble fraction (log2)” value was determined as 0.432.

With “HMYMWQVEDLIRANGLDIERIKDSIIRPYELDEERKRELTQWYEDLIDMMRREGVAQSGHLQIN”, the “soluble fraction (log2)” value is -2.45. The value for “HMLDPIQEGKKMLNSRLSGFGITPNTRLMNKLLAAYNISSREEFYGRIGAGIEDLSTLREVLLKGT” was -0.284; that for “HMEDISQHAVKKLVQEMVMAEDPRDPLSDQQIAENLSRLGLKVARRTVAKYRAMLGIQPSNRRRK” was -0.0553. For “HMLPANGEAIYHYLASGAIKGVGPVTAQRIVDKFGEDTFDVLENNPLWLAEIKGITRKTAENIGAAFAAQF”, the “soluble fraction (log2)” value is at least 0.62. Under “HMPRKLDDQLQEQIRYLKSNYPRMSAAGIFRQLQDNGSIKHGDVSESTINRYVNLLSIEMKTTT” stands -0.223.

In the case of “HMIDPHGSLTLDLRPRDARVEIIDSNKTYKPGVRLPMGEYAIAVSRRGYISETKRINIEYGDNRERVAL”, the “soluble fraction (log2)” value is 0.0829. On to “HMDLRYKVQYNFIDQGMMTKDELLKFSLNQDDVSKIAVFDNDSKQWKEIYAITEISEKLGIS”, for which the “soluble fraction (log2)” value was -0.0611.

Turning to “HMSYQNKLNYLINAFGGADNFQKLLGVGPSAISNYKSRKHLPLNQAKRLSKIAPQFGFSLDPHSLQIST”, the “soluble fraction (log2)” value was -0.377. The value for “HMALQDKYKQLVDTATASGVANLQVREQDGVLYIDGEAPSGSVKDQLWDIYGKIDPNFLSGDVVMNINV” was -0.0683; that for “HMVSMSFDDYVNDAKEYESEGDKDKAYNSYLEAYKLNKSSEEVLDYLIDNTEDVTLKLNYVYEYLDL” was -0.0996. “HMHSILDDIPTVGPARRKALMRRYESLEAIRQATVDELKELPEINEASAEAIVSFFAGQAKEG”: the “soluble fraction (log2)” value was -0.0626. For the sequence “HMASRTLSYSEFMSRVDSGDVTSVTLDGERIIMRTSNNQEFLSIKPEGEDISERLLAKNIEVRAEAQQ”, the “soluble fraction (log2)” value is -0.284. The value for “HMNNIPFIITDERLNVIQSHLVPREVLDHPDRLRRQIDRFTEENQPKTVNYWWGPEHRHIIFYGKSK” was 0.445; that for “HMDIVKVYTTARAGETLASVAKRTGVDVARLAQWNDIPLKRAKQKLKTGKALALWVQREHASAYSNAPP” was -0.151. The value for “HMSKSENLYSAARELIPGGVNSPVRAFTGVGGTPLFIEKADGAYLYDVDGKAYIDYVGSWGPMVLGHNHP” was 0.0101; that for “HMLPPLGDQELELLRFITESAPITVREAAESYGKDRGLARTTVLTMMERLRAKGYLTRSESGAANEYSP” was -0.155; that for “HMLRRNQVQSQVIPRENGSYVVELQLRDDVDSILRLELTAATEAMARDLADRFRQDPEGVYTRLLSALY” was -0.789. Under “HMPNILLSVKDASVAISVSSKMVRLLIASGRLKAVNLGKRMTRISLQELTDFAQRQGGNVVLP” stands -0.147. With “HMNTAIPIAIDQLRIGMYIQLGLNWMSHPFPVSSFRIASESQIEILRGLGLAEVRYVPAKSDPVP”, the “soluble fraction (log2)” value was -2.88. The value for “HMKNYYEVLGVPRDAAAPDIKRAFRKLAKQFHPDHNPGDAKAEERFKLVSQAYDVLGDEEKRKLYDQFGE” was 0.173; that for “HMKEPFETMPDVMDAKQIAEALQISKAGAYNLLNSPDFPTLRIGGRKLVMKNELVEWLKSHTNRK” was 0.274. The value for “HMNVNFVQANLANLPNIQAIYQKGNEMLNDMKRGEAREIDEAYSRVDNGVGTEKDFKVLLSFRDKIIAAMQ” was 0.362. The value for “HMEKIDYLSIGHRLRAYRIASSLKAEDVAESLGISRAAVYRLEKGEIVKIETLDNLARLLNTSLSSLLG” was -2.94.

Consider “HMHSRTWTSADGVKTFEGELQSYDAASGKVSVILPNHKRITFKQEKLSADDIAWLEKNGNRP”, for which the “soluble fraction (log2)” value is 0.102.

Turning to “HMVDSVIGSVGRVTVDIDNVEALGQVKLGGMEWSARSTSGDPIPAGTEVRVDRVEGVKVFVTPV”, the “soluble fraction (log2)” value is -0.00113. Under “HMTKEEREKREKYEKLMKKAEELTAAKNHREVINVLGQAKAYATAAQLKEIEEKIKAATSEMNK” stands 0.136; under “HMAPRIVTIQIPVDKIRDVIGPGGKVIRSIIERTGVKIDVEDDGRVNVASADGDSAQRAIAIIQELTAT”, 0.0444; under “HMKIATIELVKEAVKSKLGKFTKRDIMELVPSVGKTTIENMLKQLIGEGYIERHGKGRATFYVK”, -0.56. For “HMRPRWTEQEVERAKAIKMIYPNAYRLESSDVFVQVWSKEEILLAHVEVDMFPSLRPGQPVELDEIIG”, the “soluble fraction (log2)” value was found to be 0.103. Under “HMASAEDDLTRRARKLLTTSSMLKTLQPDTGERLQWLPQVVRLLAEGVEAPRIVVLIRRAMESG” stands -1.04. The value for “HMEDQVITQFNMRLIRAVMPQGAPMIVVYEDPKDYPGLFVARLFDGRKSTHLIALADTLEDI” was -0.123. The value for “HMALEVPGIAKDKIYRIFGQLYERQQKWEDAIDYYNRAVFFTLSGTDMILYQEDLSRVKQKISL” was -0.0269. On to “HMSPLTPEEAEVLRILGDHGDMTVDNIATEGKMSAAAVLRVLGVLSAYGLAVPSGPGRWGSRAA”, for which the “soluble fraction (log2)” value was -0.24. In the case of “HMTQPAEINRLVEQMGSSDYKSRQEAYERLHQMGPGILDLIYPYRNHADPEIQTRVRELILSYRW”, the “soluble fraction (log2)” value came to 0.264. With “HMHMNFGEILQTKRKEKGFTQEELAHQLLVSSKTISNWETNKTTPDIDNVIRISQLFDISLNQLLLE”, the “soluble fraction (log2)” value is -0.379. The value for “HMEPTAEQLKAIRQFASVNGRSWKSELRYLWETGAYHRAALGGADPGYLQQVRNQFGPGWLRAFKISK” was -0.852; that for “HMNIIATHTVPAIEQKIRLQEYAISIFPQINSRSALKKAIAKKLVLLDGERASTADWIQPGQKIELLEDK” was -0.337.

With “HMNLDVEQIKKEALNQLIEIGNENDGIVTIKDFKKIDDISSLDEDDIEDIRNLLIENNIEIFE”, the “soluble fraction (log2)” value was determined as 0.127. As to “HMDYQEVEFEKLGKEILTKILLDINKKATKKTLKILIDGFNYDSYRSFYIAIGKAQISSDSILELLQH”, the “soluble fraction (log2)” value is -0.622. On to “HMDGDFGMNLDWQPSEHFPTLARQAGIPADHITAEAIAEFRSYWIGQGKAMTQYQWDHKLLTNLKATKTR”, for which the “soluble fraction (log2)” value is -1.14.

Take “HMDHKSALQELLAPRGLQPSYRLVEEAGPAHARVFTSEVSVDGVARGSGTGTTIKMSEQAAAREALASLG”: the “soluble fraction (log2)” value was 0.223. Under “HMNISALKGKIGEVYLKIPAHNAGKGKVLISLKGTHHELYAITRSGEDISSGEFVKVIEIEDEILVVEK” stands -0.58; under “HMEDPLAAQWKQGRKLFHDDYGYGIISKAFTAGDELVIMVQFENGGEKRFLPKYQAHNLLLVEQ”, -0.218; under “HMTSMYYLNKAVKEGNAKAIRQLLSAGININVRKRETSTPLDFAIKYKQTEIADLLRKHGGKTAEELKAEE”, -0.343. Turning to “HMATETELNLQLMRIIDELHTDHNTWGSRKITDYLRLQGYEINRKRIQRLMDVMDIQVVYPK”, the “soluble fraction (log2)” value is -1.98. The value for “HMTQMSVLFSELEAKDAATIADKLRERNIPYELSNNGSTILIPQEVLHDTRLSLASEGLPES” was -0.0936; that for “HMRSISVEMDGKEYLIPTVSENGKVLSDDDAVKQFKKTGKHLDVFDSPEDATAYARQLHEDQESFYA” was 0.142.

For the sequence “HMRNMRKLWIARINAAARMNDISYSKLMHGLKLANVEINRKMLSEMAIDDPKSFTALVETAKKALNG”, the “soluble fraction (log2)” value is -0.894.

With “HMLNNVDIHKLSEDLLLYKIKIDIKLKNIEDAISTIDYFSNKFPNSDLMPYVIYEKKLIDNI”, the “soluble fraction (log2)” value was -2.5.
